These results are taken from patent US20160311918A1, “Anti-Ron Monoclonal Antibodies as a Cytotoxic Drug Delivery System for Targeted Cancer Therapy” (TEXAS TECH UNIVERSITY SYSTEM, priority 2013, published 2016).

“And” between values parts separate entries of the source, which are not always exact repeats. Identical values can stand only once.

One experiment concerns HT29 cells. Nature of the experiment: Cell viability assay, HT29. It is filed as cell-based, human. To be noted: read-out: IC50 cell viability, free DM1. Here is the method: (§1) Cell viability was determined by the MTS assay. […] Morphological changes were observed under the Olympus BK-41 inverted microscope and photographed. […] FIG. 3D: Cell death percentages were determined by the trypan blue exclusion method.
(§2) Cell viability and death assays: Cell viability 72 h after Zt/g4-DM1 treatment was determined by the MTT assay (22). Viable or dead cells were determined by the trypan blue exclusion assay. A total of 900 cells were counted from three individual wells to reach the percentages of dead cells.
(§3) The effect of Zt/g4-DM1 on cell viability was determined. […] The cells were treated with Zt/g4-DM1.

Another experiment concerns HCT116 cells. Briefly: Cell viability assay, HCT116. The following applies: read-out: IC50 cell viability, free DM1. It is filed as cell-based, human. Here is the method:
as §1, §2, §3

For the next experiment, the system named is SW620 cells. Briefly: Cell viability assay, SW620. It is filed as cell-based, human. The following applies: read-out: IC50 cell viability, free DM1. As to the method:
as §1, §2, §3

Experiment [1] addresses T1, human RON receptor tyrosine kinase (recepteur d'origine nantais) (human, UniProt Q04912 25-1400). Nature of the experiment: cell-based or functional assay.
Experiment [2] deals with T1, human RON receptor tyrosine kinase …. Briefly: cell-based or functional assay. This is another data set of the same source.
Experiment [3] has the same target. Nature of the experiment: direct binding, ELISA, IHC, Western blotting, flow cytometry. Background: ELISA stands for enzyme-linked immunosorbent assay.
The target of a further experiment is RON (Homo sapiens, UniProt Q04912). Briefly: Classification of anti-RON mAbs by activity upon binding to RON. In kind it is cell-based. An excerpt:
Using an advanced living cell immunization method, the present inventors were able to generate mAbs specific only to the RON extracellular domains. Using flow cytometer in conjunction with biological assays, the present inventors characterize our anti-RON mAbs for their specificity and sensitivity. […] This is based on direct binding, ELISA, IHC, Western blotting and other biochemical and biological assays. Moreover, based on their activities upon binding to RON, the present inventors were able to classify the anti-RON mAb into three categories. […] This type of anti-RON mAbs is considered as agnostic antibodies. The representatives are Zt/g4, Zt/c1, Zt/c9, Zt/f1, and Zt/H12. […] The typical examples are Zt/g9 and Zt/c8. […] One example is Zt/f2. The present inventors considered this type of mAb having therapeutic potentials.

In the next experiment the target is T2, mouse RON homologue (Mus musculus, UniProt Q62190).
T2 sequence (Q62190 24-1378): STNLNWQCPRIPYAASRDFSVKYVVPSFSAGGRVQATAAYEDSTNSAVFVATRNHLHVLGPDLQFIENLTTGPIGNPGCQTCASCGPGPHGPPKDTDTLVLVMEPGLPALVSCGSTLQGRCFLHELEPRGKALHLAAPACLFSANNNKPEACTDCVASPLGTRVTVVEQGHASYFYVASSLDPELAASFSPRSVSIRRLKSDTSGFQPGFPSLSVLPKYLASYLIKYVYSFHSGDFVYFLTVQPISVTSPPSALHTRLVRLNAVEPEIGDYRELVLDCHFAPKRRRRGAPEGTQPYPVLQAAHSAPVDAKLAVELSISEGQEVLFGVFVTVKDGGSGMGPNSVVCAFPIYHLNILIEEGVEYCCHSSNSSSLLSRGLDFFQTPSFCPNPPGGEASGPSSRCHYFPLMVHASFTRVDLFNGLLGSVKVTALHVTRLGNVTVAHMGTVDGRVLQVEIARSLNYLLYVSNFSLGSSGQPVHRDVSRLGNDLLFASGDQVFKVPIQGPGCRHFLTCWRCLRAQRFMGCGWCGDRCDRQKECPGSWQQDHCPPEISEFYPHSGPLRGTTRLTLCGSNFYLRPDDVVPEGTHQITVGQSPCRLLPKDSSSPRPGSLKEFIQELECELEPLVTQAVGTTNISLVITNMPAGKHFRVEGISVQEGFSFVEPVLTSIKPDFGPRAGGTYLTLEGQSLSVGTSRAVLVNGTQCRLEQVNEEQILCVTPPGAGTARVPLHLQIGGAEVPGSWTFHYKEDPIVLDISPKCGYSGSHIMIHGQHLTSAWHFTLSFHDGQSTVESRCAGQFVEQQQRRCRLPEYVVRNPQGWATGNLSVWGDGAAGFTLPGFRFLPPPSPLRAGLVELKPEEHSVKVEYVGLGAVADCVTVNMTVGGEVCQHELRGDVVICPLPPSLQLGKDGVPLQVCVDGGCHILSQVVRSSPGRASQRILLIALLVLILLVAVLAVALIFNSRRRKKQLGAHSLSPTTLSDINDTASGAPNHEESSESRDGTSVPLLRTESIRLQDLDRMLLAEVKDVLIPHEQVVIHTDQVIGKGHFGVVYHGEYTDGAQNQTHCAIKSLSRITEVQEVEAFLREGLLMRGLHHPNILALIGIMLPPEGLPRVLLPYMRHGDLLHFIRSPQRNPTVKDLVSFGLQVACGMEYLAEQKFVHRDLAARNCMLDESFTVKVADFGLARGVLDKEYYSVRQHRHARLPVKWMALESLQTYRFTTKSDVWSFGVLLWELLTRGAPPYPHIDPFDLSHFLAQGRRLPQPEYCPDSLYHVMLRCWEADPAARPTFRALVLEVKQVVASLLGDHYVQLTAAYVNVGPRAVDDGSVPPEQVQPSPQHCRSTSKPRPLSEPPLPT
To be noted: cited from earlier work.

The target of another experiment is cell surface RON (Homo sapiens, UniProt Q04912). Briefly: Antibody-induced RON endocytosis in cancerous cells. It is filed as cell-based. Also on record: cause rapid and significant amount of cell surface RON internalization in cancerous cells; endogenous in cells. The source says:
During characterization of anti-RON mAbs, the present inventors discovered that agonistic anti-RON mAb such as Zt/g4 and Zt/c1 binds to RON and cause rapid and significant amount of cell surface RON internalization in cancerous cells (a process known as antibody-induced receptor endocytosis). […] Fab fragments that fail to cause RON activation cannot induce RON endocytosis. In light of these findings, the present inventors conclude that anti-RON mAb-induced RON endocytosis can be used as a pharmaceutical means for targeted drug delivery.

Experiment [4] deals with human pancreatic cancer cells. Nature of the experiment: PDAC cell viability in combination with chemotherapeutics. It is filed as cell-based. As to the method:
In vitro cell viability and death assays: Cell viability after treatment of Zt/g4-DM1, chemotherapeutics, and their combinations was determined by the MTT assay. Cell death was determined by the trypan blue exclusion assay.
FIGS. 10A to 10D are graphs that show the effect of Zt/g4-DM1 on pancreatic cancer cell cycle, viability, and apoptotic death. […] FIG. 12 are graphs that show synergism between Zt/g4-DM1 and chemotherapeutics by isobolograms.

Experiment [5] addresses T3, oncogenic RON variant RON160 (human, UniProt Q04912 25-1400, limits assumed).
T3 construct: also called RONΔ160
Nature of the experiment: receptor binding studies; format not stated.

In experiment [6] the test system is human RON and its oncogenic variants such as RON160. Briefly: Zt/f2 receptor binding to human RON. The source says: (§4) This sequence is critical in regulating RON maturation and phosphorylation. […] These biochemical features provide the cellular basis for the use of Zt/f2 to inhibit tumor growth in animal model. Repeated administration of Zt/f2 as a single agent into Balb/c mice results in partial inhibition of tumor growth caused by transformed NIH-3T3 cells expressing oncogenic RON160. Colon cancer HT-29 cell-mediated tumor growth in athymic nude mice also was attenuated following Zt/f2 treatment. In both cases, ˜50% inhibition of tumor growth as measured by tumor volume was achieved. […] The present inventors conclude that Zt/f2 is a potential therapeutic mAb capable of inhibiting RON-mediated oncogenesis by colon cancer cells in animal models. The inhibitory effect of Zt/f2 in vivo in combination with chemoagent 5-fluorouracil could represent a novel strategy for future colon cancer therapy.

The subject of experiment [7] is transformed NIH-3T3 cells expressing oncogenic RON160. Nature of the experiment: Tumor growth by NIH-3T3 cells expressing RON160 in Balb/c mice. It is filed as in vivo, mouse. The following applies: repeated administration, single agent.
Text: as §4

In experiment [8] the test system is Colon cancer HT-29 cell-mediated tumor growth. Nature of the experiment: HT-29 cell-mediated tumor growth in athymic nude mice (Zt/f2). In kind it is in vivo, mouse.
Text: as §4

Sequence of cell surface RON (Q04912 25-1400): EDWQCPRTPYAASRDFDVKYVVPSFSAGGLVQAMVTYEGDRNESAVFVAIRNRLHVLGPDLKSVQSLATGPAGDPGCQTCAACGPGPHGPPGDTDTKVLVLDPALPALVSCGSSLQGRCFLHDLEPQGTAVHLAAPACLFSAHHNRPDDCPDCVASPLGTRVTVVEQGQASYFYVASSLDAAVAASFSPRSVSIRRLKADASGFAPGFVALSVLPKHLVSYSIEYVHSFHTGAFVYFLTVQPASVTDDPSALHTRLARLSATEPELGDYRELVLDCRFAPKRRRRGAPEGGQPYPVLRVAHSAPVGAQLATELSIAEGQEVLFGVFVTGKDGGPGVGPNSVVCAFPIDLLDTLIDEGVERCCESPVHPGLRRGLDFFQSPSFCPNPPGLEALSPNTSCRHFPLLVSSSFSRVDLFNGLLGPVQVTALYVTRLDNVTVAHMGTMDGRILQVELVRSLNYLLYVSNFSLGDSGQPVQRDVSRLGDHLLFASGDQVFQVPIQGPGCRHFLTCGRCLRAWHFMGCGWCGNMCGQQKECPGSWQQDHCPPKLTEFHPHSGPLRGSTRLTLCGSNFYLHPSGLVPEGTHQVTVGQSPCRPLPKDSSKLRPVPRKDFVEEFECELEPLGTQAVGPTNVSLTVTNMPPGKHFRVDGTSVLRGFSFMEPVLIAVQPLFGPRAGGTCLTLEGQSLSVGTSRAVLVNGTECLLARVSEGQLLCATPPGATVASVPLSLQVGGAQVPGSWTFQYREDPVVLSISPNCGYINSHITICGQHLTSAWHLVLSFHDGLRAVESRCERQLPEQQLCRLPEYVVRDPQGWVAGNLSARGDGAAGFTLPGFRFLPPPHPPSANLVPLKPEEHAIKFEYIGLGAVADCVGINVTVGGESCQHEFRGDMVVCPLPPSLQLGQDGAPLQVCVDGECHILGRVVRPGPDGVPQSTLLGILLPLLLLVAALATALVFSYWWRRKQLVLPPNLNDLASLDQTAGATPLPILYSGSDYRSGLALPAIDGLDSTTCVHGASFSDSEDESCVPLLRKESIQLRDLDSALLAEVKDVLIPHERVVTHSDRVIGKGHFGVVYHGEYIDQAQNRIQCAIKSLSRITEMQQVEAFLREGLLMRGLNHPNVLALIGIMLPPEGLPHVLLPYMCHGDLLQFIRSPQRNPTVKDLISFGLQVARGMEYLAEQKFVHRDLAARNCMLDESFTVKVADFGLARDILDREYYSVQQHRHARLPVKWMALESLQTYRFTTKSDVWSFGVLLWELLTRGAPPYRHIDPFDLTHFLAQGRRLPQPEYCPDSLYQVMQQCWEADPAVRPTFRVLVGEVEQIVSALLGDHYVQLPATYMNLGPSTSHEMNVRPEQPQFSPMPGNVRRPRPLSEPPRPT
Sequence of RON (Q04912 25-1400): as above

The term IC50 denotes the midpoint of a concentration-inhibition curve. Consider `COc1cc2cc(c1Cl)N(C)C(=O)C[C@H](OC(=O)[C@H](C)N(C)C(=O)CCS)[C@]1(C)O[C@H]1[C@H](C)[C@@H]1C[C@@](O)(NC(=O)O1)[C@H](OC)/C=C/C=C(\C)C2` [DM1, Maytansinoid (DM1)], for which the 50% inhibitory concentration (IC50) with HT29 cells was 4.4 nM; in the experiment on HCT116 cells, 4.1 nM; in the experiment on SW620 cells, 3.2 nM.

B1: anti-RON antibody Zt/g4-maytansinoid (DM1) conjugate Zt/g4-DM1 (antibody, V domains shown)
VH: EVQLQQSGAELVKPGASVKLSCTTSGFNIIDTYIHWVNQKPDQGLEWIGRIDPADGNRKSDPKFQVKATITVDTSSNTAYLQLSSLTSGDTAVYYCARGYGNLNAMDSWGQGTSVTVSS
VL: DIQMNQSPSSLSASLGDTITITCHASQNINVWLNWYQQKPGNIPKLLIYKASNLHTGVPSRFSGSGSGTGFTLTISSLQPEDIATYYCQQGQSYPLTFGGGTKLEIK
modifications: DM1 conjugated by non-reducible thioether linkage (SMCC) through lysine residues in the antibody molecule; sites not stated; DM1 conjugated by non-reducible thioether linkage (SMCC) through lysine residues in the antibody molecule; average DAR 3.724; sites not stated
On to B1, for which, in experiment [1], the “IC50 of cell death at 72 h, three CRC cell lines” value lay in the range of 5 to 7 µg/mL; the “IC50 of cell viability at 72 h, HCT116 cells” value is 2.16 µg/mL; the “IC50 of cell viability at 72 h, HT29 cells” value was determined as 1.64 µg/mL; the “IC50 of cell viability at 72 h, SW620 cells” value stood at 4.03 µg/mL. Besides, in experiment [1], the “IC50 of cell viability, DLD1 cells” value was determined as 20.4 µg/mL and the “average IC50 value in causing cell death, three PDAC cell lines (L3.6pl, BxPC-3, FG)” value came to 3.13 µg/mL. Also, the “IC50 value, cytotoxic effect on HT-29 cells” value in [2] is 1.25 µg/mL and 8.32 nM.

B2: mouse anti-RON monoclonal antibody Zt/g4 (antibody, V domains shown)
VH: B1 VH
VL: B1 VL
notes: Mouse IgG1a/kappa from hybridoma; The leader is not part of the antibody as tested; also called free Zt/g4; anti-RON mAb Zt/g4
Regarding B2, the binding result in experiment [3] is “binds”.

B3: Zt/g4: mouse monoclonal antibody (IgG1α/κ) highly specific to human RON, recognizes the RON sema domain (antibody, V domains shown)
VH: B1 VH
VL: B1 VL
As for B3, the “activity upon binding to RON” value with RON is given as “cause transient RON phosphorylation”. For the same molecule, in the experiment with mouse RON homologue, the “species recognition of RON” value is “only recognizes human RON but not mouse RON homologue”. Also, the “absence of RON expression in cancerous cells in culture” value with cell surface RON (after endocytosis) is given as “up to 72 h”. In the experiment with cell surface RON (within 24 h, 10 μg/ml/1×10^6 cancer cells), the “cell surface RON internalization” value is “almost all cell surface RON is internalized”.

B4: Zt/g4-MMAE (antibody, V domains shown)
VH: B1 VH
VL: B1 VL
modifications: monomethyl auristatin E (MMAE) conjugated; average drug to antibody ratio 3.8:1; sites not stated
On to B4, for which the “average IC50 value in causing cell death, three PDAC cell lines (L3.6pl, BxPC-3, FG)” value in [1] worked out at 5.16 µg/mL.

B5: Zt/g4-MMAE: Zt/g4 conjugated to monomethyl auristatin E (MMAE) (conjugate)
VH: B1 VH
VL: B1 VL
Consider B5, for which the “combination effect on viability of human pancreatic cancer cells” value in experiment [4] (in combination with Gemcitabine) and in [4] (in combination with Oxaliplatin) was “synergistic activity” in each case.

B6: mouse monoclonal antibody Zt/f2 specific to human RON (antibody, V domains shown)
VH: QVQLQQSGAELAKPGASVKMSCKASGYTFTSYWMHWVKQRPGQGLEWIGYINPSTGYIEYNQNFKDKATLTADKSSSTAYMQLSSLTSEDSAVYYCARSPSHYYGSRYGYFDVWGAGTTVTVSS
VL: QIVLSQSPAILSASPGEKVTMTCRASSSVSYMHWYQQKPGSSPKPWIYATSNLASGVPARFSGSGSGTSYSLTISRVEAEDAATYYCQQWSSNPRTFGGGTKLEIK
notes: Mouse IgG2a; also called anti-RON mAb Zt/f2
Usually EC50 stands for the concentration needed to bring the measured effect to its halfway point. Molecule B6 yielded an EC50 in experiment [5] of 2.3 nM.

B7: Zt/f2: mouse IgG2a mAb specific to human RON and its oncogenic variants such as RON160 (antibody, V domains shown)
VH: B6 VH
VL: B6 VL
Regarding B7, the “competition with ligand macrophage-stimulating protein for binding to RON” value in [6] is “did not compete”. The “inhibition of tumor growth as measured by tumor volume” value is on record as roughly 50% in experiment [7] and roughly 50% in [8] (single agent, athymic nude mice). Besides, the “inhibition effect on HT-29 cell-mediated tumor growth” value in experiment [8] (in combination with 5-fluorouracil) is on record as roughly 80%. For the same molecule, the “activity upon binding to RON” value with RON was “inhibit RON activation and signaling”.
